“Also recorded” adds a separate entry of the source.
System: human mammary epithelial cells
Assay: Human mammary organoids stained for K8/K14, confocal microscopy
Type: cell-based
Conditions: Day 17 organoids; 50 ng/mL NRG3, 100 ng/mL AMH, 50 ng/mL GM-CSF
Procedure: Organoids were recovered from Matrigel by incubating in Corning Cell Recovery Solution for 1 hour with rocking on ice. Organoids were then fixed in 4% paraformaldehyde (PFA) at room temperature for 1 hour and stored in PBS at 4° C. After PFA fixation, antigen retrieval was performed by boiling the organoids in sodium citrate buffer for 20 minutes at 96° C. Organoids were permeabilized in a 0.5% Triton-X-100 solution in PBS overnight at room temperature. Samples were blocked by incubating overnight in a solution of 5% goat serum.
Following fixation and permeabilization, the organoids were incubated sequentially in primary antibody and secondary antibody solutions (as summarized in the table below) overnight at room temperature. Samples were counterstained in a 2 μg/ml DAPI solution for 20 minutes and dehydrated through stepwise incubations in solutions with increasing methanol concentrations (50%, 80%, then 100% methanol). Organoids were embedded in a solution of 2:1 Benzyl Benzoate-Benzyl alcohol (BABB), transferred to Ibidi glass bottom chamber slides and imaged using a Leica SP8 confocal laser scanning microscope. […]
The effects of modulating signaling through BMP were analyzed across multiple experiments in terms of total cell count among formed organoids (FIG. 9A) and the lineage balance of the cells among formed organoids (FIG. 9B). […]

B1: anti mullerian hormone (protein, UniProt P03971 452-560, looked up)
Muellerian-inhibiting factor: SAGATAADGPCALRELSVDLRAERSVLIPETYQANNCQGVCGWPQSDRNPRYGNHVVLLLKMQVRGAALARPPCCVPTAYAGKLLISLSEERISAHHVPNMVATECGCR
**Q.** For B1, which “lineage restriction of organoids formed (K8/K14 staining)” value is on record?
**A.** bias the culture of mammary epithelial cells to form luminal-restricted organoids; also recorded: Luminal-restricted organoids were formed
